From patent publication US20210388087A1 (Chugai, published 2021)
Changes are numbered by the printed parent chain. In names and notes the source's numbering stands. Values belong to the binder of their own block, whether it stands above or below them.

Molecular target: T1, Human CD3eg linker (human)
T1 construct: Single chain: epsilon and gamma subunits of human CD3 joined by a 29-mer linker, Flag-tag at the C-terminus; also called recombinant human CD3
T1 chain: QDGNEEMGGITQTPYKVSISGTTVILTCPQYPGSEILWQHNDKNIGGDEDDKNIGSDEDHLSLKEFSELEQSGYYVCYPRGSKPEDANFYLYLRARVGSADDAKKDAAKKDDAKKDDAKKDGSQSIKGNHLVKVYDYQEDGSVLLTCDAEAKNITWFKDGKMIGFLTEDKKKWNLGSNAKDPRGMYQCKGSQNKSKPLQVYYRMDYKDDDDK
Assay: Biacore SPR, vs template H183/L072

fold change of affinity: 1.1 fold
B2: H183/L072 VH A54Q (antibody, name in Kabat numbering, V domains shown)
VH: QVQLVESGGGLVQPGRSLRLSCAASGFTFSNAWMHWVRQAPGKGLEWVAQIKDKGNQYAAYYAPSVKGRFTISRDDSKNSIYLQMNSLKTEDTAVYYCHYVHYASASTVLPAFGVDAWGQGTTVTVSS
VL: DIVMTQSPLSLPVTPGEPASISCQASQELVHMNRNTYLHWYQQKPGQAPRLLIYKVSNRFPGVPDRFSGSGSGTDFTLKISRVEAEDVGVYYCAQGTSVPFTFGQGTKLEIK

fold change of affinity: 0 fold
B9: H183/L072 VH A54P (antibody, name in Kabat numbering, V domains shown)
VH: B2 VH with Q57P
VL: B2 VL

fold change of affinity: 1.1 fold
B13: H183/L072 VH A54H (antibody, name in Kabat numbering, V domains shown)
VH: B2 VH with Q57H
VL: B2 VL

fold change of affinity: 1 fold
B14: H183/L072 VH A54M (antibody, name in Kabat numbering, V domains shown)
VH: B2 VH with Q57M
VL: B2 VL

fold change of affinity: 1.1 fold
B18: H183/L072 VH A54R (antibody, name in Kabat numbering, V domains shown)
VH: B2 VH with Q57R
VL: B2 VL

fold change of affinity: 1.1 fold
B21: H183/L072 VH A54K (antibody, name in Kabat numbering, V domains shown)
VH: B2 VH with Q57K
VL: B2 VL

fold change of affinity: 1 fold
B26: H183/L072 VH A54G (antibody, name in Kabat numbering, V domains shown)
VH: B2 VH with Q57G
VL: B2 VL

fold change of affinity: 1.1 fold
B27: H183/L072 VH A54N (antibody, name in Kabat numbering, V domains shown)
VH: B2 VH with Q57N
VL: B2 VL

fold change of affinity: 1.1 fold
B28: H183/L072 VH A54L (antibody, name in Kabat numbering, V domains shown)
VH: B2 VH with Q57L
VL: B2 VL

fold change of affinity: 1 fold
B31: H183/L072 VH A54S (antibody, name in Kabat numbering, V domains shown)
VH: B2 VH with Q57S
VL: B2 VL

fold change of affinity: 0.7 fold
B33: H183/L072 VH A54I (antibody, name in Kabat numbering, V domains shown)
VH: B2 VH with Q57I
VL: B2 VL

Second part, the binder before the results:

B1: H183/L072 VH G26A (antibody, name in Kabat numbering, V domains shown)
VH: B2 VH with G26A, Q57A
VL: B2 VL
fold change of affinity: 0.5 fold

B3: H183/L072 VH A32P (antibody, name in Kabat numbering, V domains shown)
VH: B2 VH with A32P, Q57A
VL: B2 VL
fold change of affinity: 0 fold

B4: H183/L072 VH A32H (antibody, name in Kabat numbering, V domains shown)
VH: B2 VH with A32H, Q57A
VL: B2 VL
fold change of affinity: 0.5 fold

B5: H183/L072 VH A54F (antibody, name in Kabat numbering, V domains shown)
VH: B2 VH with Q57F
VL: B2 VL
fold change of affinity: 1.2 fold

B6: H183/L072 VH A32N (antibody, name in Kabat numbering, V domains shown)
VH: B2 VH with A32N, Q57A
VL: B2 VL
fold change of affinity: 0.5 fold

B7: H183/L072 VH A32E (antibody, name in Kabat numbering, V domains shown)
VH: B2 VH with A32E, Q57A
VL: B2 VL
fold change of affinity: 0.1 fold

B8: H183/L072 VH A54E (antibody, name in Kabat numbering, V domains shown)
VH: B2 VH with Q57E
VL: B2 VL
fold change of affinity: 1 fold

B10: H183/L072 VH A32R (antibody, name in Kabat numbering, V domains shown)
VH: B2 VH with A32R, Q57A
VL: B2 VL
fold change of affinity: 0.6 fold

B11: H183/L072 VH A32I (antibody, name in Kabat numbering, V domains shown)
VH: B2 VH with A32I, Q57A
VL: B2 VL
fold change of affinity: 0.1 fold

B12: H183/L072 VH A32W (antibody, name in Kabat numbering, V domains shown)
VH: B2 VH with A32W, Q57A
VL: B2 VL
fold change of affinity: 0.1 fold

B15: H183/L072 VH A32T (antibody, name in Kabat numbering, V domains shown)
VH: B2 VH with A32T, Q57A
VL: B2 VL
fold change of affinity: 0 fold

B16: H183/L072 VH A32L (antibody, name in Kabat numbering, V domains shown)
VH: B2 VH with A32L, Q57A
VL: B2 VL
fold change of affinity: 0 fold

B17: H183/L072 VH A32V (antibody, name in Kabat numbering, V domains shown)
VH: B2 VH with A32V, Q57A
VL: B2 VL
fold change of affinity: 0.9 fold

B19: H183/L072 VH A32G (antibody, name in Kabat numbering, V domains shown)
VH: B2 VH with A32G, Q57A
VL: B2 VL
fold change of affinity: 0.3 fold

B20: H183/L072 VH A54D (antibody, name in Kabat numbering, V domains shown)
VH: B2 VH with Q57D
VL: B2 VL
fold change of affinity: 0.9 fold

B22: H183/L072 VH A32S (antibody, name in Kabat numbering, V domains shown)
VH: B2 VH with A32S, Q57A
VL: B2 VL
fold change of affinity: 0.4 fold

B23: H183/L072 VH A32Y (antibody, name in Kabat numbering, V domains shown)
VH: B2 VH with A32Y, Q57A
VL: B2 VL
fold change of affinity: 0 fold

B24: H183/L072 VH A32M (antibody, name in Kabat numbering, V domains shown)
VH: B2 VH with A32M, Q57A
VL: B2 VL
fold change of affinity: 0 fold

B25: H183/L072 VH A32Q (antibody, name in Kabat numbering, V domains shown)
VH: B2 VH with A32Q, Q57A
VL: B2 VL
fold change of affinity: 0.4 fold

B29: H183/L072 VH A32F (antibody, name in Kabat numbering, V domains shown)
VH: B2 VH with A32F, Q57A
VL: B2 VL
fold change of affinity: 0 fold

B30: H183/L072 VH A32K (antibody, name in Kabat numbering, V domains shown)
VH: B2 VH with A32K, Q57A
VL: B2 VL
fold change of affinity: 0.5 fold

B32: H183/L072 VH A32D (antibody, name in Kabat numbering, V domains shown)
VH: B2 VH with A32D, Q57A
VL: B2 VL
fold change of affinity: 0 fold
